Data: patent US7067474B1, “Agents for treating human illnesses based on β-catenin, and the production and use thereof” (Max-Delbruck-Centrum fur Molekulare Medizin, priority 1998, dated 2006)

How the values were obtained:
Test in all cases: yeast 2-hybrid, β-galactosidase reporter; percent of wild type β-catenin
[1] = target: conductin amino acids Ala342-Arg465 fused to Lex-A (vector BTM 116) (UniProt P0A7C2)
[2] = target: human APC amino acids Ser1259-Asp1400 (APC 20 amino acid repeats) fused to Lex-A (vector BTM 116) (human)
[3] = target: E-cadherin amino acids Gln773-Asp884 (cytoplasmatic domain) fused to Lex-A (vector BTM 116) (UniProt P0A7C2 1-202; P09803 773-884)
Experimental: (§1) 4. Preparation and testing of mutants of β-catenin modulating the interaction with LEF-1, APC, conductin or E-cadherin The mutagenesis of β-catenin in the armadillo repeats 3–8 was carried out by means of the "mutagenesis kit" of the company Clontech according to the producer's record and the mutants were checked by sequencing (FIG. 5). In all mutants the original amino acid was substituted by alanine. For analyzing the interactions the cDNA of human β-catenin (armadillo repeat 3 up to the C-terminal end of the protein) coding for the amino acids Leu218–Leu7 µl or its mutants was cloned into the fusion vector for the activation domain of Gal-4 (pGAD424, Clontech). The cDNA for the binding domains of the interaction partners was cloned into the Lex-A fusion vector BTM 116. To this end, the cDNA of LEF-1 for the amino acids 1–99, conductin for the amino acids Ala342–ARG465; of human APC for the amino acids His1012–Glu1215 (APC 15 amino acid repeats) and for the amino acids Ser1259Asp 1400 (APC 20 amino acid repeats) and E-cadherin for the amino acids Gin773–Asp884 (cytoplasmatic domain) were amplified with the respective primers PCR. The interaction of the Lex-A hybrids with β-catenin and its mutants was quantified by means of the β-galactosidase reporter activity in the yeast 2-hybrid system (report: "Matchmaker". Clontech) (Tab. 2 and FIG. 6).

[4] = target: human APC amino acids His1012-Glu1215 (APC 15 amino acid repeats) fused to Lex-A (vector BTM 116) (human)
[5] = target: T1, LEF-1 amino acids 1-99 fused to Lex-A (vector BTM 116) (UniProt P0A7C2 1-202; P27782 1-99)
T1 construct: Order of the fusion follows the vector; also called LEF-1/TCF-4
Experimental: as §1

Sequence of human APC amino acids His1012-Glu1215 (APC 15 amino acid repeats) fused to Lex-A (vector BTM 116) (human) (P0A7C2 other isoform, or with tags, fused parts or gaps limits assumed, form in doubt): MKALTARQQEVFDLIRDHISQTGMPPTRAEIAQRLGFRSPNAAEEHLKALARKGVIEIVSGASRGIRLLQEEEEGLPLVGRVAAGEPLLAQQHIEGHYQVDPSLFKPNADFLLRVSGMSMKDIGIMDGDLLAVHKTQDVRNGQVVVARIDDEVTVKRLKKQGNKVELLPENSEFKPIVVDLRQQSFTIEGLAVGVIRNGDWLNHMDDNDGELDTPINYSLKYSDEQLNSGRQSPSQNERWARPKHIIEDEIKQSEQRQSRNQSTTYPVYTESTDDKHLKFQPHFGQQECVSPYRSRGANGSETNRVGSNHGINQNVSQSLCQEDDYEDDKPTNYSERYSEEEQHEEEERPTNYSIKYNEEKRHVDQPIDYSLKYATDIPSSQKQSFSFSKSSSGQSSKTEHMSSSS
Sequence of conductin amino acids Ala342-Arg465 fused to Lex-A (vector BTM 116) (P0A7C2 other isoform, or with tags, fused parts or gaps limits assumed, form in doubt): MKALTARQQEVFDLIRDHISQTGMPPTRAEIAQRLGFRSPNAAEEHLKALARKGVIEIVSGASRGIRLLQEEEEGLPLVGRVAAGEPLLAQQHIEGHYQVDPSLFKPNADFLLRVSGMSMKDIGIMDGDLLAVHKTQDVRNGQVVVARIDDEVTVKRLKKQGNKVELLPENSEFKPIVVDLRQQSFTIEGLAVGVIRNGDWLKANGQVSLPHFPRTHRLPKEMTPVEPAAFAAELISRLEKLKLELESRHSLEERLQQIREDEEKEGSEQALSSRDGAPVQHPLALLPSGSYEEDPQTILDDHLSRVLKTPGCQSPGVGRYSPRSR
Sequence of human APC amino acids Ser1259-Asp1400 (APC 20 amino acid repeats) fused to Lex-A (vector BTM 116) (human) (P0A7C2 other isoform, or with tags, fused parts or gaps limits assumed, form in doubt): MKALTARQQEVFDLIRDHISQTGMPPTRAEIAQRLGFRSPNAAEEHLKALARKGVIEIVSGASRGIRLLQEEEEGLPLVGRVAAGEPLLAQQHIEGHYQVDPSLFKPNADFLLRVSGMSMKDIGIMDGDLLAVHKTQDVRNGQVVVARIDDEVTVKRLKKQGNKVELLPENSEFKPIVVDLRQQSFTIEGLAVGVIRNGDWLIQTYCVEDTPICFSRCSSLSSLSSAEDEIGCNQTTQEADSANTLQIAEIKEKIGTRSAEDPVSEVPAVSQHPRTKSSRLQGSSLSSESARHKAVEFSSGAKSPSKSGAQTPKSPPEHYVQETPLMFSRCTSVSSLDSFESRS
T1 sequence (P0A7C2 other isoform, or with tags, fused parts or gaps limits assumed): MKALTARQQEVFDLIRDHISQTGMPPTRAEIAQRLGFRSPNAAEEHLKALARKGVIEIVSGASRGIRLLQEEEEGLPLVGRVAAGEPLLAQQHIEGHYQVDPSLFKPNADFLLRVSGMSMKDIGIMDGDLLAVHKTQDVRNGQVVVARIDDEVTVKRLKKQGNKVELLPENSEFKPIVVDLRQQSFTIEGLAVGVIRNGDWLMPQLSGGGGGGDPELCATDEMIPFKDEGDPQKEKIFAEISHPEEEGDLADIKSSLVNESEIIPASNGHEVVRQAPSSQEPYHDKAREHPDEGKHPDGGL
Sequence of E-cadherin amino acids Gln773-Asp884 (cytoplasmatic domain) fused to Lex-A (vector BTM 116) (P0A7C2 other isoform, or with tags, fused parts or gaps limits assumed, form in doubt): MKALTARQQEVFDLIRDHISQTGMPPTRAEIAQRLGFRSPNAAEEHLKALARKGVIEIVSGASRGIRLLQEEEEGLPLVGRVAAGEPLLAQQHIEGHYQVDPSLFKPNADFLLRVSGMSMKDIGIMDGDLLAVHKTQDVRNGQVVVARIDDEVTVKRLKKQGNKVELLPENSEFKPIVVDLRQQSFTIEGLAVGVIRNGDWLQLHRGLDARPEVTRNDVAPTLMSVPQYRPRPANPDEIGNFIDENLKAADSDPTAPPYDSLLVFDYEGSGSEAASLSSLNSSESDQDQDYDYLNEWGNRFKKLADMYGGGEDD

B1: human β-catenin (Leu218-Leu781) mutant Arg 274 to alanine, Gal-4 activation domain fusion (other, not shown: large carriers; small tags and cut ends)
chain: LHNLSHHREGLLAIFKSGGIPALVKMLGSPVDSVLFYAITTLHNLLLHQEGAKMAVALAGGLQKMVALLNKTNVKFLAITTDCLQILAYGNQESKLIILASGGPQALVNIMRTYTYEKLLWTTSRVLKVLSVCSSNKPAIVEAGGMQALGLHLTDPSQRLVQNCLWTLRNLSDAATKQEGMEGLLGTLVQLLGSDDINVVTCAAGILSNLTCNNYKNKMMVCQVGGIEALVRTVLRAGDREDITEPAICALRHLTSRHQEAEMAQNAVRLHYGLPVVVKLLHPPSHWPLIKATVGLIRNLALCPANHAPLREQGAIPRLVQLLVRAHQDTQRRTSMGGTQQQFVEGVRMEEIVEGCTGALHILARDVHNRIVIRGLNTIPLFVQLLYSPIENIQRVAAGVLCELAQDKEAAEAIEAEGATAPLTELLHSRNEGVATYAAAVLFRMSEDKPQDYKKRLSVELTSSLFRTEPMAWNETADLGLDIGAQGEPLGYRQDDPSYRSFHSGGYGQDALGMDPMMEHEMGGHHPGADYPVDGLPDLGHAQDLMDGLPPGDSNQLAWFDTDL
share of the interaction with wild type β-catenin in percent [1]: 29% | share of the interaction with wild type β-catenin in percent [2]: 40% | share of the interaction with wild type β-catenin in percent [3]: 50%

B2: human β-catenin (Leu218-Leu781) mutant Arg 342 to alanine, Gal-4 activation domain fusion (other, not shown: large carriers; small tags and cut ends)
chain: LHNLSHHREGLLAIFKSGGIPALVKMLGSPVDSVLFYAITTLHNLLLHQEGAKMAVRLAGGLQKMVALLNKTNVKFLAITTDCLQILAYGNQESKLIILASGGPQALVNIMRTYTYEKLLWTTSAVLKVLSVCSSNKPAIVEAGGMQALGLHLTDPSQRLVQNCLWTLRNLSDAATKQEGMEGLLGTLVQLLGSDDINVVTCAAGILSNLTCNNYKNKMMVCQVGGIEALVRTVLRAGDREDITEPAICALRHLTSRHQEAEMAQNAVRLHYGLPVVVKLLHPPSHWPLIKATVGLIRNLALCPANHAPLREQGAIPRLVQLLVRAHQDTQRRTSMGGTQQQFVEGVRMEEIVEGCTGALHILARDVHNRIVIRGLNTIPLFVQLLYSPIENIQRVAAGVLCELAQDKEAAEAIEAEGATAPLTELLHSRNEGVATYAAAVLFRMSEDKPQDYKKRLSVELTSSLFRTEPMAWNETADLGLDIGAQGEPLGYRQDDPSYRSFHSGGYGQDALGMDPMMEHEMGGHHPGADYPVDGLPDLGHAQDLMDGLPPGDSNQLAWFDTDL
share of the interaction with wild type β-catenin in percent [1]: 20% | share of the interaction with wild type β-catenin in percent [2]: 29% | share of the interaction with wild type β-catenin in percent [3]: 41%

B3: human β-catenin (Leu218-Leu781) mutant Arg 386 to alanine, Gal-4 activation domain fusion (other, not shown: large carriers; small tags and cut ends)
chain: LHNLSHHREGLLAIFKSGGIPALVKMLGSPVDSVLFYAITTLHNLLLHQEGAKMAVRLAGGLQKMVALLNKTNVKFLAITTDCLQILAYGNQESKLIILASGGPQALVNIMRTYTYEKLLWTTSRVLKVLSVCSSNKPAIVEAGGMQALGLHLTDPSQRLVQNCLWTLANLSDAATKQEGMEGLLGTLVQLLGSDDINVVTCAAGILSNLTCNNYKNKMMVCQVGGIEALVRTVLRAGDREDITEPAICALRHLTSRHQEAEMAQNAVRLHYGLPVVVKLLHPPSHWPLIKATVGLIRNLALCPANHAPLREQGAIPRLVQLLVRAHQDTQRRTSMGGTQQQFVEGVRMEEIVEGCTGALHILARDVHNRIVIRGLNTIPLFVQLLYSPIENIQRVAAGVLCELAQDKEAAEAIEAEGATAPLTELLHSRNEGVATYAAAVLFRMSEDKPQDYKKRLSVELTSSLFRTEPMAWNETADLGLDIGAQGEPLGYRQDDPSYRSFHSGGYGQDALGMDPMMEHEMGGHHPGADYPVDGLPDLGHAQDLMDGLPPGDSNQLAWFDTDL
share of the interaction with wild type β-catenin in percent [1]: 45% | share of the interaction with wild type β-catenin in percent [4]: 12% | share of the interaction with wild type β-catenin in percent [5]: 35%

B4: human β-catenin (Leu218-Leu781) mutant Arg 469 to alanine, Gal-4 activation domain fusion (other, not shown: large carriers; small tags and cut ends)
chain: LHNLSHHREGLLAIFKSGGIPALVKMLGSPVDSVLFYAITTLHNLLLHQEGAKMAVRLAGGLQKMVALLNKTNVKFLAITTDCLQILAYGNQESKLIILASGGPQALVNIMRTYTYEKLLWTTSRVLKVLSVCSSNKPAIVEAGGMQALGLHLTDPSQRLVQNCLWTLRNLSDAATKQEGMEGLLGTLVQLLGSDDINVVTCAAGILSNLTCNNYKNKMMVCQVGGIEALVRTVLRAGDREDITEPAICALAHLTSRHQEAEMAQNAVRLHYGLPVVVKLLHPPSHWPLIKATVGLIRNLALCPANHAPLREQGAIPRLVQLLVRAHQDTQRRTSMGGTQQQFVEGVRMEEIVEGCTGALHILARDVHNRIVIRGLNTIPLFVQLLYSPIENIQRVAAGVLCELAQDKEAAEAIEAEGATAPLTELLHSRNEGVATYAAAVLFRMSEDKPQDYKKRLSVELTSSLFRTEPMAWNETADLGLDIGAQGEPLGYRQDDPSYRSFHSGGYGQDALGMDPMMEHEMGGHHPGADYPVDGLPDLGHAQDLMDGLPPGDSNQLAWFDTDL
share of the interaction with wild type β-catenin in percent [5]: 17% | share of the interaction with wild type β-catenin in percent [3]: 50%

B5: human β-catenin (Leu218-Leu781) mutant His 470 to alanine, Gal-4 activation domain fusion (other, not shown: large carriers; small tags and cut ends)
chain: LHNLSHHREGLLAIFKSGGIPALVKMLGSPVDSVLFYAITTLHNLLLHQEGAKMAVRLAGGLQKMVALLNKTNVKFLAITTDCLQILAYGNQESKLIILASGGPQALVNIMRTYTYEKLLWTTSRVLKVLSVCSSNKPAIVEAGGMQALGLHLTDPSQRLVQNCLWTLRNLSDAATKQEGMEGLLGTLVQLLGSDDINVVTCAAGILSNLTCNNYKNKMMVCQVGGIEALVRTVLRAGDREDITEPAICALRALTSRHQEAEMAQNAVRLHYGLPVVVKLLHPPSHWPLIKATVGLIRNLALCPANHAPLREQGAIPRLVQLLVRAHQDTQRRTSMGGTQQQFVEGVRMEEIVEGCTGALHILARDVHNRIVIRGLNTIPLFVQLLYSPIENIQRVAAGVLCELAQDKEAAEAIEAEGATAPLTELLHSRNEGVATYAAAVLFRMSEDKPQDYKKRLSVELTSSLFRTEPMAWNETADLGLDIGAQGEPLGYRQDDPSYRSFHSGGYGQDALGMDPMMEHEMGGHHPGADYPVDGLPDLGHAQDLMDGLPPGDSNQLAWFDTDL
share of the interaction with wild type β-catenin in percent [4]: 60% | share of the interaction with wild type β-catenin in percent [2]: 47% | share of the interaction with wild type β-catenin in percent [5]: 2%

B6: human β-catenin (Leu218-Leu781) mutant Lys 345 to alanine, Gal-4 activation domain fusion (other, not shown: large carriers; small tags and cut ends)
chain: LHNLSHHREGLLAIFKSGGIPALVKMLGSPVDSVLFYAITTLHNLLLHQEGAKMAVRLAGGLQKMVALLNKTNVKFLAITTDCLQILAYGNQESKLIILASGGPQALVNIMRTYTYEKLLWTTSRVLAVLSVCSSNKPAIVEAGGMQALGLHLTDPSQRLVQNCLWTLRNLSDAATKQEGMEGLLGTLVQLLGSDDINVVTCAAGILSNLTCNNYKNKMMVCQVGGIEALVRTVLRAGDREDITEPAICALRHLTSRHQEAEMAQNAVRLHYGLPVVVKLLHPPSHWPLIKATVGLIRNLALCPANHAPLREQGAIPRLVQLLVRAHQDTQRRTSMGGTQQQFVEGVRMEEIVEGCTGALHILARDVHNRIVIRGLNTIPLFVQLLYSPIENIQRVAAGVLCELAQDKEAAEAIEAEGATAPLTELLHSRNEGVATYAAAVLFRMSEDKPQDYKKRLSVELTSSLFRTEPMAWNETADLGLDIGAQGEPLGYRQDDPSYRSFHSGGYGQDALGMDPMMEHEMGGHHPGADYPVDGLPDLGHAQDLMDGLPPGDSNQLAWFDTDL
share of the interaction with wild type β-catenin in percent [1]: 22% | share of the interaction with wild type β-catenin in percent [5]: 38% | share of the interaction with wild type β-catenin in percent [3]: 27%

B7: human β-catenin (Leu218-Leu781) mutant Lys 354 to alanine, Gal-4 activation domain fusion (other, not shown: large carriers; small tags and cut ends)
chain: LHNLSHHREGLLAIFKSGGIPALVKMLGSPVDSVLFYAITTLHNLLLHQEGAKMAVRLAGGLQKMVALLNKTNVKFLAITTDCLQILAYGNQESKLIILASGGPQALVNIMRTYTYEKLLWTTSRVLKVLSVCSSNAPAIVEAGGMQALGLHLTDPSQRLVQNCLWTLRNLSDAATKQEGMEGLLGTLVQLLGSDDINVVTCAAGILSNLTCNNYKNKMMVCQVGGIEALVRTVLRAGDREDITEPAICALRHLTSRHQEAEMAQNAVRLHYGLPVVVKLLHPPSHWPLIKATVGLIRNLALCPANHAPLREQGAIPRLVQLLVRAHQDTQRRTSMGGTQQQFVEGVRMEEIVEGCTGALHILARDVHNRIVIRGLNTIPLFVQLLYSPIENIQRVAAGVLCELAQDKEAAEAIEAEGATAPLTELLHSRNEGVATYAAAVLFRMSEDKPQDYKKRLSVELTSSLFRTEPMAWNETADLGLDIGAQGEPLGYRQDDPSYRSFHSGGYGQDALGMDPMMEHEMGGHHPGADYPVDGLPDLGHAQDLMDGLPPGDSNQLAWFDTDL
share of the interaction with wild type β-catenin in percent [1]: 43% | share of the interaction with wild type β-catenin in percent [4]: 54% | share of the interaction with wild type β-catenin in percent [5]: 38% | share of the interaction with wild type β-catenin in percent [3]: 40%
